What all share (test): malachite green assay coupled to inorganic pyrophosphatase
Holding throughout (details): pH 7.5, 5 mM MgCl2, 37 °C, 30 min

The target in one data set is T1, CsTPS13PK (Cannabis sativa, UniProt A0A1V0QSG1).
T1 construct: gene TPS13PK; E. coli BL21(DE3); monomer
The class given is biochemical. The text has this: malachite green assay coupled to inorganic pyrophosphatase on CsTPS13PK

Another data set deals with T2, CsTPS12PK (Cannabis sativa, UniProt A0A1V0QSF4).
T2 construct: gene TPS33PK; printed as CsTPS12PK/CsTPS33PK; E. coli; monomer
The format is biochemical. The text has this:
malachite green assay coupled to inorganic pyrophosphatase on CsTPS12PK

Substrate in data set [1]: CC(C)=CCC/C(C)=C/COP(=O)(O)OP(=O)(O)O
The format is biochemical, Cannabis sativa. An excerpt:
malachite green assay coupled to inorganic pyrophosphatase on CsTPS3FN

Substrate in data set [2]: CC(C)=CCC/C(C)=C/CC/C(C)=C/CO[P@@](=O)(O)OP(=O)(O)O
The class given is biochemical, Cannabis sativa. An excerpt:
malachite green assay coupled to inorganic pyrophosphatase on CsTPS16CC

Substrate in data set [3]: CC(C)=CCC/C(C)=C/COP(=O)(O)OP(=O)(O)O
The format is biochemical, Cannabis sativa. The text has this: malachite green assay coupled to inorganic pyrophosphatase on CsTPS1SK
This is another data set of the same source.

Substrate in data set [4]: CC(C)=CCC/C(C)=C/CC/C(C)=C/CO[P@@](=O)(O)OP(=O)(O)O
The class given is biochemical, Cannabis sativa. An excerpt: malachite green assay coupled to inorganic pyrophosphatase on CsTPS20CT
The source holds these as a separate data set.

Substrate in data set [5]: CC(C)=CCC/C(C)=C/COP(=O)(O)OP(=O)(O)O
The class given is biochemical, Cannabis sativa. This is another data set of the same source.

Experimental findings from paper PMC12256043, “Integrated platform for structural and functional analysis of terpene synthases of Cannabis sativa” (PeerJ, 2025) are described below.

For orientation: Km means the substrate concentration at which the rate is half of its maximum.

T1 sequence (A0A1V0QSG1 41-640): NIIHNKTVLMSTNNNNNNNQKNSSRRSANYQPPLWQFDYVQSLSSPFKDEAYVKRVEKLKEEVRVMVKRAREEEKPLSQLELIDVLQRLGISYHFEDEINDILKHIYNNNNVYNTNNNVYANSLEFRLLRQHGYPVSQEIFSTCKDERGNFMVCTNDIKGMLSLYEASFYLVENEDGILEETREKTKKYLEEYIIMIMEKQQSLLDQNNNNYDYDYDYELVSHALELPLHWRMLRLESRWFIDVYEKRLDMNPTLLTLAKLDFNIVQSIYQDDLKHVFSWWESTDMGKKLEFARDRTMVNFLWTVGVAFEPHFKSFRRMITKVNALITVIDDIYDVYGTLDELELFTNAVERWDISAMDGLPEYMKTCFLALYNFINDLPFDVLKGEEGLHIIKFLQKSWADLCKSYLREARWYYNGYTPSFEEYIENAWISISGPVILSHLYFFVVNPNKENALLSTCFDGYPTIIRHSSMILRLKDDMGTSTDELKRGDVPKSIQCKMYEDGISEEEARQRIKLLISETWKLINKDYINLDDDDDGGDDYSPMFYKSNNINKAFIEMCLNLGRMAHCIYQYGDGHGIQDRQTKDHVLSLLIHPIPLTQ
T2 sequence (A0A1V0QSF4 34-615): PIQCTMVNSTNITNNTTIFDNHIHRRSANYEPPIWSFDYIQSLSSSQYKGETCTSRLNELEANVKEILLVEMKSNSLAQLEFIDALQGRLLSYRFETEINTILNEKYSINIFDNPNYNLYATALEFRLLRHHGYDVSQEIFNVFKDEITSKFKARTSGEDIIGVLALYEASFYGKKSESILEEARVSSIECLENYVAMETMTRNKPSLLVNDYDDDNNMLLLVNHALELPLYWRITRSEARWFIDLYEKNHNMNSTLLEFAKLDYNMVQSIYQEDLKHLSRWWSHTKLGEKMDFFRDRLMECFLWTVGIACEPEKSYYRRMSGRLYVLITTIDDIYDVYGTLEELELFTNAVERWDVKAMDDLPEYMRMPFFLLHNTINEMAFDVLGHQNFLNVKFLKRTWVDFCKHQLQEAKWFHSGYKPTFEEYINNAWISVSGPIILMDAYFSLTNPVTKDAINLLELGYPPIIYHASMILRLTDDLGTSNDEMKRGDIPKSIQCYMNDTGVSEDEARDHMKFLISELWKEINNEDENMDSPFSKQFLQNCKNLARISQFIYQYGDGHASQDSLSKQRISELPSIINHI

In the case of `CC(C)=CCC/C(C)=C/COP(=O)(O)OP(=O)(O)O` [GPP, geranyl diphosphate], the Km on CsTPS13PK is 13 ± 1.23 µM; at CsTPS12PK, 41.8 ± 8.29 µM.

B1: CsTPS3FN (Cannabis sativa) (protein)
chain: RSANYEPPIWSFDYIQSLSTQYKGESYTRQLNKLKKEVKRMLLRMEINSLALLELIDTLQRLGISYHFKNEINTILKKKYNDNYINNNIITNPNYNNLYATALEFRLLRQHGYTVPQEIFNAFKDKRGKFKTSLSDDIMGVLCLYEASFYAMKHENILEEARIFSTKCLKKYMEKIENEEEKKILLLNDNNINSNLLLINHAFELPLHWRITRSEARWFIDEIYEKKQDMNSTLFEFAKLDFNIVQSTHQEDLQHLSRWWRDCKLGGKLNFARDRLMEAFLWDVGLKFEGEFSYFRRTNARLFVLITIIDDIYDVYGTLEELELFTSAVERWDVKLINELPDYMKMPFFVLHNTINEMGFDVLVEQNFVNIEYLKKSWVDLCKCYLQEAKWYYSGYQPTLEEYTELGWLSIGASVILMHAYFCFTNPITKQDLKSLQLQHHYPNIIKQACLITRLADDLGTSSDELNRGDVPKSIQCYMYDNNATEDEAREHIKFLISETWKDMNKKDEDESCLSENFVEVCKNMARTALFIYENGDGHGSQNSLSKERISTLIITPINIPK
notes: E. coli BL21(DE3); monomer
In the case of B1, the Km in data set [1] was determined as 4.569 ± 0.411 µM.

B2: CsTPS16CC (Cannabis sativa) (protein)
chain: MSSQVLASSQKNDKTQNIIRPTTKFHPPIWGDRFLHYNISEQELEYKEGQVEELKEVVRKEIFHGNNKRNIINVSKQLKLIDDVERLGLSYHFESEIEKKLQHIYEITTNNIDHQDQHYYYSNHDEDLHDVSIRFRLLRQHGFNISSNIFEKFKDESGKFKESLKSDIEGMLSLYEASYLSYVEENILDEALAFTTTNLKLVANKKEHPLSHEISLALYRPLRKTLVRLYARHYISIYEKQPSHNKVLLQFAKLDFNLLQSLHKKELSEISRWWKELDLANKLPFARNRIVELYLWILGVFHEPQFSLARKILIKAISMASVADDIYDAYGTFEELELLTEAILRWDISFIDKLSPDYLKTYYKVFLNSYEECEKDLKKEERYKLHYAKESMKKLIQAYFHEAQWLNQGHFPSFDEHLKVSFVSSGYPMLIETSFVGMQDVKTNQVFEWLSTQPKIFRACTIISRFMDDLVSRKFEQERNHVPSTVDCYMKQYGVSEQEACDELNKQVVNLWKEINQEFLRPTSMPSSILVRILNFTKVLDIIYKEGDGYTHVGKLVKDSVAALLIDPIPL
notes: E. coli BL21(DE3); monomer
On to B2, for which, in data set [2], the Km turned out to be 38.43 ± 2.83 µM.

B3: CsTPS1SK (Cannabis sativa) (protein)
chain: RSANYGPPIWSFDFVQSLPIQYKGESYTSRLNKLEKDVKRMLIGVENSLAQLELIDTIQRLGISYRFENEIISILKEKFTNNNNNPNPINYDLYATALQFRLLRQYGFEVPQEIFNNFKNHKTGEFKANISNDIMGALGLYEASFHGKKGESILEEARIFTTKCLKKYKLMSSSNNNNMTLISLLVNHALEMPLQWRITRSEAKWFIEEIYERKQDMNPTLLEFAKLDFNMLQSTYQEELKVLSRWWKDSKLGEKLPFVRDRLVECFLWQVGVRFEPQFSYFRIMDTKLYVLLTIIDDMHDIYGTLEELQLFTNALQRWDLKELDKLPDYMKTAFYFTYNFTNELAFDVLQEHGFVHIEYFKKLMVELCKHHLQEAKWFYSGYKPTLQEYVENGWLSVGGQVILMHAYFAFTNPVTKEALECLKDGHPNIVRHASIILRLADDLGTLSDELKRGDVPKSIQCYMHDTGASEDEAREHIKYLISESWKEMNNEDGNINSFFSNEFVQVKQNLGRASQMIYQYGDGHASQNNLSKERVLGLIITPIPM
notes: E. coli BL21(DE3); monomer
Regarding B3, the Km in data set [3] is given as 7.809 ± 0.678 µM.

B4: CsTPS20CT (Cannabis sativa) (protein)
chain: MSNIQVLASSQLSDKIIARPTTKFHPSIWGDRFLHYNISEQDLVCKQEKVEELIQVVKKEILSSNHDQLKLIDNLQRLGLSYHFESEIEKLLEQLSITHHQNHHDLHDASLWFRLLRQHGFNVSSSIFEKFKDEEGNFKESLITDVPGLLSLYEASHLSYVGESILDEALAFTTTHLKAIVANSKDHPLSHQISIVLHRPLRKTIERLHARFYISIYEKDASHNKLLLELAKLDFNLLQCFHKKELSEITRWWKEHEFAKKFPFARDRMVELYFWILGVYYEPKYSRARKLLTKVIALTSITDDIYDAYGTIDELQLLTKAIQRWDINCMDKLKQEYLKTYYKVMLDSYEEFEKELKKEELYKLEYAKEEMKRIIGGYFEEARWLNEGYFPSFDEHLRVSYVSSGNVLLIATSFVGMHDVVTHETLDWLSKDPKIVSASTLLSRFMDDIGSRKFEQKRNHIPSTVDCYMKQYGVSEEEAIKELNKRVDTHWKEINEDFIRPAVVPFPILVRVLNFTKIVDLLYKEGDDQYTNVGKVLKESIAALLIDSIPL
notes: E. coli BL21(DE3); monomer
Consider B4, for which, in data set [4], the Km turned out to be 16.86 ± 6.42 µM.

B5: CsTPS5FN (Cannabis sativa) (protein)
chain: MSLSGLISTTTFKEQPAIVRRSGNYKPPLWDAHFIQSLQVIYTEESYGKRINELKEDVRRILEKEAENPLVKLEQINDLSRLGISYHFEDQIKAILNLTYNNNNALWKKDNLYATALHFKLLRQYGFNPVSSEIFNAFKDEKKEFKESLSKDVKGMVCLYEASFYSFRGEPILDEARDFTTKHLKQYLMMTRQGQNVDHDDDNDLMVKLVEHALELPVHWRMKRLEARWFIDMYAEMSHHHHMNSTFLQLAKLDFNVVQSTYQEDLKHVVRWWKTTSLGERLPFARDRIVEIFLWSVGLKFEPQFRYCRKMLTKIGQLVTTMDDIFDVYGTLDELSLFQHALGRWDINTIDQLPDYMKIFFLATYNVVNEMAYDVLKQNGILIIKYLKKTWTDLCKCYMLEANWYHSGYTPSLEEYIKNGWISIAEPLILVNLYCLITNPIKEDDIDCLLQYPTFIRISGIIARLVDDLGTSSDELKRGDNPKSIQCYMKENGICDEKNGREHIRNLISETWKEMNEARVGESPFSQAFIETAIDFVRTAMMIYQKEQDGVGTNIDHYTKDGIISLFFTSIPI
notes: E. coli BL21(DE3); monomer
For the molecule B5, the Km in data set [5] amounted to 23.3 ± 1.34 µM.
